From article PMC8429893, “CTP regulates membrane-binding activity of the nucleoid occlusion protein Noc” (Molecular Cell, 2021) come the findings set out here.

Data set [1] concerns the target Geobacillus thermoleovorans NocNΔ26ΔCTD (Geobacillus thermoleovorans). The experiment in a line: crystal structure; G. thermoleovorans NocNΔ26ΔCTD, premixed with 1 mM CTPγS and 1 mM MgCl2 (no nucleotide in the density), 2.95 Å, space group C222(1), one copy per asymmetric unit; dimer with a symmetry mate.
Data set [2] concerns the target T1, Noc (nucleoid occlusion protein) (Bacillus subtilis, UniProt P37524).
T1 construct: B. subtilis Noc (WT), His6-tagged
Nature of the data set: ITC. The data set is classed as binding.

Data set [3] has as its target T2, Noc (N121S) (Bacillus subtilis, UniProt P37524, N121S).
T2 construct: B. subtilis Noc (N121S), His6-tagged
Nature of the data set: ITC. It counts as binding.

Data set [4] deals with T3, Noc (Bacillus subtilis, UniProt P37524 1-283).
T3 sequence: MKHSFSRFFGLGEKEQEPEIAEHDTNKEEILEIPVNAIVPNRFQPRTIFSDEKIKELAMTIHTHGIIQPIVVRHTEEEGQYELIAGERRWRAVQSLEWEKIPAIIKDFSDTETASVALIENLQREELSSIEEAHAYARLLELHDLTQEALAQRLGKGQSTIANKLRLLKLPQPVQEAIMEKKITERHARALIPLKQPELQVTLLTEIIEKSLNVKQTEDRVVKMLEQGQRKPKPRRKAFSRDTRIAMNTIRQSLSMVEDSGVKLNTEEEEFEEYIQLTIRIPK
The experiment in a line: BLI; 1 mM CTP; no increase beyond nucleation; BLI: 100 mM Tris-HCl pH 8.0, 150 mM NaCl, 1 mM MgCl2, 0.005% Tween 20, 22 C; 1 uM Noc dimer +/- 1 mM NTP. Conditions: protein: recombinant; tags: C-terminal His6; chain copies: 2; label: biotin at M13F end; 5' overhang 4 nt (GATC) at BamHI end.

For another data set, the target named is T4, Noc (R89A) (Bacillus subtilis, UniProt P37524 1-283, R89A).
T4 sequence: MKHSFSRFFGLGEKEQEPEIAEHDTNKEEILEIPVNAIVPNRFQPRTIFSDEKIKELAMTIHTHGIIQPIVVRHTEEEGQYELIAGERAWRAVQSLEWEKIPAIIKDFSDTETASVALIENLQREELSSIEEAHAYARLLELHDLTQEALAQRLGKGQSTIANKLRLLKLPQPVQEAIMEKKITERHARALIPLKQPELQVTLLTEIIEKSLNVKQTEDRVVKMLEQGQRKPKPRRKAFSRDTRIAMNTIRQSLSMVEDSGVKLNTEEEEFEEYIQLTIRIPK
Nature of the data set: BLI; 1 mM CTP; nucleates, does not spread; BLI: 100 mM Tris-HCl pH 8.0, 150 mM NaCl, 1 mM MgCl2, 0.005% Tween 20, 22 C; 1 uM Noc dimer +/- 1 mM NTP. Conditions: protein: recombinant; tags: C-terminal His6; chain copies: 2; label: biotin on both ends; blunt.

For data set [5], the target named is T5, Noc (N121S) (Bacillus subtilis, UniProt P37524 1-283, N121S).
T5 sequence: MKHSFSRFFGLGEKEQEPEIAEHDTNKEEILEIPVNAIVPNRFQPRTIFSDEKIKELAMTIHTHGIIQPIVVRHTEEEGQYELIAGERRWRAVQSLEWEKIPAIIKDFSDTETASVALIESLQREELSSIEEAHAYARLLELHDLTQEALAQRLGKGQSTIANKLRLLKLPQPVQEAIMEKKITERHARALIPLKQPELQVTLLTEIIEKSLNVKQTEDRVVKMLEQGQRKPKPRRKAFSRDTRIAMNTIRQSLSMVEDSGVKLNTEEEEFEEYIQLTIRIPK
The description is as above. Conditions: protein: recombinant; tags: C-terminal His6; chain copies: 2; label: biotin on both ends; blunt.

Data set [6] addresses T3, Noc. The experiment in a line: BLI; 1 mM CTP; BLI: 100 mM Tris-HCl pH 8.0, 150 mM NaCl, 1 mM MgCl2, 0.005% Tween 20, 22 C; 1 uM Noc dimer +/- 1 mM NTP. The note with it: protein: recombinant; tags: C-terminal His6; chain copies: 2; label: biotin on both ends; blunt.
Data set [7] deals with T3, Noc. The experiment in a line: BLI; 1 uM Noc; 1 mM CTP; BLI: 100 mM Tris-HCl pH 8.0, 150 mM NaCl, 1 mM MgCl2, 0.005% Tween 20, 22 C; 1 uM Noc dimer +/- 1 mM NTP. The note with it: protein: recombinant; tags: C-terminal His6; chain copies: 2; label: biotin on both ends; blunt.
Data set [8] deals with the molecule itself. Nature of the data set: cross-linking; BMOE (1 mM) cysteine crosslinking of 10 uM Noc variant ± 1 mM NTP ± 1 uM 22 bp NBS/parS DNA; 10 mM Tris-HCl pH 7.4, 200 mM NaCl, 1 mM MgCl2; 10 min at 22°C; SDS-PAGE, Coomassie, band quantification; reads self-engagement of the N-terminal domain.

“Geobacillus thermoleovorans NocNΔ26ΔCTD (domain or fragment)” gave a stoichiometry N in data set [1] of 2.
Regarding `Nc1ccn([C@@H]2O[C@H](COP(=O)(O)OP(=O)(O)OP(O)(O)=S)[C@@H](O)[C@H]2O)c(=O)n1` [CTPɣS], the figures for the Kd (in data set [2]; at Noc (N121S) [3]) were 68 ± 23 µM and 232 ± 66 µM, respectively.

B1: 170 bp NBS DNA, BamHI-cut (open) (dsDNA)
DNA 1: CGCCAGGGTTTTCCCAGTCACGACGTTGTAAAACGACGGCCAGAATTCGCAACGTGTATTTCCCGGGAAATAGCCTTGAACTGATAACGACTCTATCATTGATAGAGTGTTCTCTCCACGG
DNA 2: GATCCCGTGGAGAGAACACTCTATCAATGATAGAGTCGTTATCAGTTCAAGGCTATTTCCCGGGAAATACACGTTGCGAATTCTGGCCGTCGTTTTACAACGTCGTGACTGGGAAAACCCTGGCG
With B1, in the data set with Noc [4], the binding result is given as “binds”.

B2: 170 bp NBS DNA, closed (dsDNA)
DNA 1: CGCCAGGGTTTTCCCAGTCACGACGTTGTAAAACGACGGCCAGAATTCGCAACGTGTATTTCCCGGGAAATAGCCTTGAACTGATAACGACTCTATCATTGATAGAGTGTTCTCTCCACGGGATCCCCAGGCATGCAAGCTTGGCGTAATCATGGTCATAGCTGTTTCCT
DNA 2: AGGAAACAGCTATGACCATGATTACGCCAAGCTTGCATGCCTGGGGATCCCGTGGAGAGAACACTCTATCAATGATAGAGTCGTTATCAGTTCAAGGCTATTTCCCGGGAAATACACGTTGCGAATTCTGGCCGTCGTTTTACAACGTCGTGACTGGGAAAACCCTGGCG
With B2, the binding result in the data set with Noc (R89A) and with Noc (N121S) [5] was “binds” in each case. The binding signal with Noc [6] is ~6 fold BLI response vs no CTP.

B3: 170 bp parS DNA, closed (dsDNA)
DNA 1: CGCCAGGGTTTTCCCAGTCACGACGTTGTAAAACGACGGCCAGAATTCGCAACGTGTGTTTCACGTGAAACAGCCTTGAACTGATAACGACTCTATCATTGATAGAGTGTTCTCTCCACGGGATCCCCAGGCATGCAAGCTTGGCGTAATCATGGTCATAGCTGTTTCCT
DNA 2: AGGAAACAGCTATGACCATGATTACGCCAAGCTTGCATGCCTGGGGATCCCGTGGAGAGAACACTCTATCAATGATAGAGTCGTTATCAGTTCAAGGCTGTTTCACGTGAAACACACGTTGCGAATTCTGGCCGTCGTTTTACAACGTCGTGACTGGGAAAACCCTGGCG
B3: the binding result in the data set with Noc [7] was “no binding”.

B4: B. subtilis NocNΔ10 (E29C) (domain or fragment, Bacillus subtilis, UniProt P37524 11-283, looked up)
chain: LGEKEQEPEIAEHDTNKECILEIPVNAIVPNRFQPRTIFSDEKIKELAMTIHTHGIIQPIVVRHTEEEGQYELIAGERRWRAVQSLEWEKIPAIIKDFSDTETASVALIENLQREELSSIEEAHAYARLLELHDLTQEALAQRLGKGQSTIANKLRLLKLPQPVQEAIMEKKITERHARALIPLKQPELQVTLLTEIIEKSLNVKQTEDRVVKMLEQGQRKPKPRRKAFSRDTRIAMNTIRQSLSMVEDSGVKLNTEEEEFEEYIQLTIRIPK
In the case of B4, the binding result in data set [8] is recorded as “binds”.
